# Measured values as given in patent US20160193316A1 (priority 1994, published 2016).
# Where two headings read alike, the source gives them in different places.
# Key:
# HLA-B*0702 = molecular target: T1, HLA-B*0702 (Homo sapiens, UniProt P01889); assay: HLA class I peptide binding assay; conditions: Malaria B07 super motif peptides; binding value, no unit
# T1 construct: endogenous in cells; host or cells: GM3107
# HLA-A*0201 = HLA-A*0201 (Homo sapiens, UniProt P04439, D140Y/D185E/D98H/E176V/E277Q/G131W/G231S/I119V/I121R/I166T/I218V/L300P/L318F/N151K/N90K/P208A/P217A/Q86G/Q94H/R138H/R169H/T345S); assay: HLA class I peptide binding assay
# DRB1*0301 (DR3) = molecular target: T2, DRB1*0301 (DR3) (Homo sapiens, UniProt P01903+P01911, A100K/A102G/A103R/A169T/F55Y/I96L/K41T/L162R/M171V/P40S/Q125H/Q178H/Q39Y/R42S/S66N/T106N/T262R/W38E/Y61H); assay: HLA class II peptide binding assay (pH 4.5); conditions: for DR3 binding information: unit not given; for DR3 binding data: Table XIXb
# T2 construct: endogenous in cells; host or cells: MAT
# DRB1*0802 (DR8w2) = molecular target: T3, DRB1*0802 (DR8w2) (Homo sapiens, UniProt P01903+P01911, A100R/A103L/A169T/F76Y/H45Y/I96F/K41T/L162R/M171V/P40S/Q125H/Q178H/Q39Y/Q99D/R218S/R42G/S66Y/V115G/W38E); assay: biochemical; format: binding
# T3 construct: endogenous in cells; host or cells: OLL
# DRB5*0101 (DR2w2β2) = molecular target: T4, DRB5*0101 (DR2w2β2) (Homo sapiens, UniProt P01903+Q30154); format: binding
# T4 construct: expressed in transfected cells; host or cells: L416.3 (fibroblasts) or GM3107
# DRB1*1501 (DR2w2β1) = molecular target: T5, DRB1*1501 (DR2w2β1) (Homo sapiens, UniProt P01903+P01911); assay: HLA class II peptide binding assay; conditions: for DR2w2β1 binding data: Table XIXb
# T5 construct: expressed in transfected cells; host or cells: L466.1 (fibroblasts)
# DRB4*0101 (DRw53) = molecular target: T6, DRB4*0101 (DRw53) (Homo sapiens, UniProt P01903+P13762, G164S); assay: HLA class II peptide binding assay (pH 5.0); conditions: for DRw53 binding information: DR3a motif peptides, unit not given, exemplary 15-mer containing the core sequence; for DRw53 binding data: Table XIXb
# T6 construct: expressed in transfected cells; host or cells: L257.6 (fibroblasts)
# DRB1*1201 (DR5w12) = molecular target: T7, DRB1*1201 (DR5w12) (Homo sapiens, UniProt P01903+P01911, A100R/A169T/D57E/D86V/F55L/H45Y/K41T/L162R/M171V/P40S/Q125H/Q178H/Q39Y/Q99D/R42G/S66L/T262R/V114A/V67L/W38E/Y59H/Y61H/Y89S); assay: HLA class II peptide binding assay; conditions: for DR5w12 binding information: DR3a motif peptides, unit not given, exemplary 15-mer containing the core sequence; for DR5w12 binding data: Table XIXb
# T7 construct: endogenous in cells; host or cells: Herluf
# DRB1*0401 (DR4w4) = molecular target: T8, DRB1*0401 (DR4w4) (Homo sapiens, UniProt P01903+P01911, A100K/A169T/F76Y/I96L/K127E/L162R/M171V/N62H/P40V/Q125Y/R42H/S133A/S149N/S66Y/V115G/V209L/W38E); assay: HLA class II peptide binding assay; conditions: for DR4w4 binding information: DR3a motif peptides, unit not given, exemplary 15-mer containing the core sequence; for DR4w4 binding data: Table XIXb
# T8 construct: endogenous in cells; host or cells: Preiss
# T8 sequence (P01903 26-254 partner, other chains not shown): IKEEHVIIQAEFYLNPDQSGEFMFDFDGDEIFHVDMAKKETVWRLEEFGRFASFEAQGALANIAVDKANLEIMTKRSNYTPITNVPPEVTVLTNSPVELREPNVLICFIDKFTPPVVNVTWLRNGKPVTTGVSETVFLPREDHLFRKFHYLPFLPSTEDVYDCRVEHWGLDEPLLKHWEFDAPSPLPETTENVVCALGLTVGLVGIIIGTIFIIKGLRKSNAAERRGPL
# DRB1*0701 (DR7) = molecular target: T9, DRB1*0701 (DR7) (Homo sapiens, UniProt P01903+P01911, A100R/A102G/A103Q/D57E/D86V/E43K/F76Y/K127E/L162R/M171V/P40G/Q125H/Q99D/R33Q/R42Y/R54Q/S133A/S66F/T210M/V115G/Y107V/Y59L/Y89S); assay: biochemical; format: binding
# T9 construct: endogenous in cells; host or cells: Pitout
# DRB1*1101 (DR5w11) = molecular target: T10, DRB1*1101 (DR5w11) (Homo sapiens, UniProt P01903+P01911, A100R/A169T/A87E/I96F/K41T/L162R/M171V/P40S/Q125H/Q178H/Q39Y/Q99D/R42S/S66Y/T262R/V115G/W38E); assay: biochemical; format: binding
# T10 construct: endogenous in cells; host or cells: Sweig
# T10 sequence (P01903 26-254, other chains not shown): as the sequence (P01903 26-254 partner, other chains not shown) above
# DRB1*0101 (DR1) = molecular target: T11, DRB1*0101 (DR1) (Homo sapiens, UniProt P01903+P01911, A100R/D57E/F55L/F60I/F76Y/I96L/L162R/M171V/P40L/Q125E/R42F/V115G/Y59C); assay: HLA class II peptide binding assay; conditions: for DR1 binding information: DR3a motif peptides, unit not given, exemplary 15-mer containing the core sequence; for DR1 binding data: Table XIXb, Malaria Super Motif Peptides With Binding Data
# T11 construct: endogenous in cells; host or cells: LG2
# T11 sequence (P01903 26-254 partner, other chains not shown): as above
# DRB1*0901 (DR9) = molecular target: T12, DRB1*0901 (DR9) (Homo sapiens, UniProt P01903+P01911, A100R/A103E/D57H/D86V/F55Y/F60I/F76Y/I96F/K127E/L162R/M171V/P40D/Q125H/Q99R/R33Q/R42F/S133A/S66N/T210M/V115G/W38K/Y107V/Y59G/Y89S); assay: biochemical; format: binding
# T12 construct: endogenous in cells; host or cells: HID
# DRB1*1302 (DR6w19) = molecular target: T13, DRB1*1302 (DR6w19) (Homo sapiens, UniProt P01903+P01911, A100E/A169T/K41T/L162R/M171V/P40S/Q125H/Q178H/Q39Y/Q99D/R42S/S66N/T262R/V115G/W38E/Y61H); assay: HLA class II peptide binding assay; conditions: for DR6w19 binding data: Table XIXb
# T13 construct: endogenous in cells; host or cells: H0301
# T13 sequence (P01903 26-254, other chains not shown): as the sequence (P01903 26-254 partner, other chains not shown) above
# DRB1*0405 (DR4w15) = molecular target: T14, DRB1*0405 (DR4w15) (Homo sapiens, UniProt P01903+P01911, A100R/A169T/D86S/F76Y/I96L/K127E/L162R/M171V/N62H/P40V/Q125Y/R42H/S133A/S149N/S66Y/V115G/V209L/W38E); assay: HLA class II peptide binding assay; conditions: for DR4w15 binding information: DR3a motif peptides, unit not given, exemplary 15-mer containing the core sequence; for DR4w15 binding data: Table XIXb
# T14 construct: endogenous in cells; host or cells: KT3
# HLA-A*2402 = HLA-A*2402 (Homo sapiens, UniProt P04439, D101N/D140Y/D185E/E176V/E190D/F33S/G103R/G107R/I119L/I121M/I306V/K335N/L105A/L180Q/L300P/N151K/N90K/Q86E/Q94H/R106L/R138H/R89G/T104I/T345S/V100E/W191G/Y123F); assay: HLA class I peptide binding assay
# [1] = Malaria A02 motif peptides, Table VIII, unit not given
# [2] = DR3a motif peptides, unit not given, exemplary 15-mer containing the core sequence
# [3] = DR3a motif peptides, exemplary 15-mer containing the core sequence
sequence,measurement,setting,value
VPGAAIPYA,B*0702 (binding information),HLA-B*0702,0.0001
LLGGVCLVL,A*0201 (binding information),HLA-A*0201; [1],0.0038
ALLQVRKHL,A*0201 (binding information),HLA-A*0201; [1],0.0010
same,DR3 binding information,DRB1*0301 (DR3); Malaria DR3b motif peptides,-0.0033
ILTDGIPDS,DR8w2 binding information,DRB1*0802 (DR8w2),-0.0003
same,DR2w2β2 binding information,DRB5*0101 (DR2w2β2),-0.0006
same,DR2w2β1 binding information,DRB1*1501 (DR2w2β1); [2],0.0001
same,DRw53 binding information,DRB4*0101 (DRw53),0.0480
same,DR5w12 binding information,DRB1*1201 (DR5w12),0.0002
same,DR4w4 binding information,DRB1*0401 (DR4w4),0.3600
same,DR7 binding information,DRB1*0701 (DR7),0.0046
same,DR5w11 binding information,DRB1*1101 (DR5w11),-0.0004
same,DR3 binding information,DRB1*0301 (DR3); [3],0.1400
same,DR1 binding information,DRB1*0101 (DR1),0.0002
same,DR9 binding information,DRB1*0901 (DR9),0.0014
same,DR6w19 binding information,DRB1*1302 (DR6w19); [2],0.0002
same,DR4w15 binding information,DRB1*0405 (DR4w15),-0.0014
ILSVSSFLFV,A*0201 (binding information),HLA-A*0201,0.0300
AMICLIQQLNL,A*0201 (binding information),HLA-A*0201; [1],0.0006
VSTVLLGGV,DR8w2 binding data,DRB1*0802 (DR8w2),-0.0003
same,DR2w2β2 binding data,DRB5*0101 (DR2w2β2),-0.0005
same,DR2w2β1 binding data,DRB1*1501 (DR2w2β1),0.0001
same,DRw53 binding data,DRB4*0101 (DRw53),-0.0005
same,DR5w12 binding data,DRB1*1201 (DR5w12),0.0005
same,DR4w4 binding data,DRB1*0401 (DR4w4),0.0016
same,DR7 binding data,DRB1*0701 (DR7),-0.0003
same,DR5w11 binding data,DRB1*1101 (DR5w11),-0.0002
same,DR3 binding data,DRB1*0301 (DR3),-0.0008
same,DR1 binding data,DRB1*0101 (DR1),0.0140
same,DR9 binding data,DRB1*0901 (DR9),-0.0005
same,DR6w19 binding data,DRB1*1302 (DR6w19),0.0006
same,DR4w15 binding data,DRB1*0405 (DR4w15),-0.0014
LAGGLALLA,A*0201 (binding information),HLA-A*0201; [1],0.0001
TPYAGEPAPF,B*0702 (binding information),HLA-B*0702,0.0990
KLRICPICHKKL,A*0201 (binding information),HLA-A*0201; [1],0.0001
LLMDCSGSI,DR8w2 binding information,DRB1*0802 (DR8w2),0.0014
same,DR2w2β2 binding information,DRB5*0101 (DR2w2β2),0.0250
same,A*0201 (binding information),HLA-A*0201; [1],0.0460
same,DRw53 binding information,DRB4*0101 (DRw53),0.0057
same,DR5w12 binding information,DRB1*1201 (DR5w12),0.0001
same,DR4w4 binding information,DRB1*0401 (DR4w4),0.0340
same,DR7 binding information,DRB1*0701 (DR7),0.0072
same,DR5w11 binding information,DRB1*1101 (DR5w11),-0.0002
same,DR3 binding information,DRB1*0301 (DR3); [3],0.0300
same,DR1 binding information,DRB1*0101 (DR1),0.0041
same,DR4w15 binding information,DRB1*0405 (DR4w15),0.0028
YYIPHQSSL,A*201 (binding information),HLA-A*2402,4.3000
same,"A*2401 (binding information, Malaria A24 motif peptides)",HLA-A*2402,4.3000
VLLGGVCLVL,A*0201 (binding information),HLA-A*0201; [1],0.0290
YQNNIVDEI,DR8w2 binding data,DRB1*0802 (DR8w2),-0.0003
same,DR2w2β2 binding data,DRB5*0101 (DR2w2β2),-0.0006
same,DR2w2β1 binding data,DRB1*1501 (DR2w2β1),0.0001
same,DRw53 binding data,DRB4*0101 (DRw53),0.0850
same,DR5w12 binding data,DRB1*1201 (DR5w12),0.0001
same,DR4w4 binding data,DRB1*0401 (DR4w4),-0.0006
same,DR7 binding data,DRB1*0701 (DR7),-0.0003
same,DR5w11 binding data,DRB1*1101 (DR5w11),-0.0004
same,DR3 binding data,DRB1*0301 (DR3),0.0026
same,DR1 binding data,DRB1*0101 (DR1),0.0001
same,DR9 binding data,DRB1*0901 (DR9),-0.0005
same,DR6w19 binding data,DRB1*1302 (DR6w19),0.0810
same,DR4w15 binding data,DRB1*0405 (DR4w15),-0.0014
